Assay [1] addresses Pfs48/45 in its native configuration on the female gamete surface membrane (Plasmodium falciparum NF54 (endogenous in gametes)).
The target of assay [2] is Pfs48/45 6C.mAgE1 (K416N; C terminal 6x HIS tag) (Plasmodium falciparum). The assay is described as follows: BLI. (In general: In BLI a coated tip is dipped into the sample, and binding shifts an interference pattern.)
For assay [3], the target named is Pfs48/45 6C.mAgE1 (D320H; C terminal 6x HIS tag) (Plasmodium falciparum). The assay is described as follows: BLI.
Assay [4] concerns the target Pfs48/45 6C.mAgE1 (L314I; C terminal 6x HIS tag) (Plasmodium falciparum). The experiment in a line: BLI.
The target of assay [5] is Pfs48/45 6C.mAgE1 (S322N; C terminal 6x HIS tag) (Plasmodium falciparum). The assay is described as follows: BLI.
Assay [6] addresses Pfs48/45 in its native configuration on the female gamete surface membrane (Plasmodium falciparum NF54 (endogenous in gametes)). This is another data set of the same source.

Where two headings read alike, the source gives them in different places.

The Kd is the equilibrium constant for the complex coming apart. Low readings indicate a tighter complex, high ones a looser complex.

B1: RUPA-29 (hIgG1) (antibody, V domains shown)
VH: QVHLVESGGGVVQPGRSLRLSCAASGFTFRSYGMHWVRLAPGKGLEWVTAIWYDGSKKHFADSVKGRFTISRDNSKNTLYLQMSSLRVEDTAVYYCARDFAHGAFYPVDWGRGTLVTVSS
VL: SYELTQPPSVSVSPGQTARITCSGDALPKKHAYWYQQKSGQAPVLVIYDDSKRPSGIPERFSGSSSGTMATLSISGAQVEDEAAYYCYSSDTSANYWVFGGGTKLTVL
In turn, B1 came in with an other in assay [1] above 80 % TRA.

B2: RUPA-29 (Fab) (Fab, V domains shown)
VH: QVHLVESGGGVVQPGRSLRLSCAASGFTFRSYGMHWVRLAPGKGLEWVTAIWYDGSKKHFADSVKGRFTISRDNSKNTLYLQMSSLRVEDTAVYYCARDFAHGAFYPVDWGRGTLVTVSS
VL: SYELTQPPSVSVSPGQTARITCSGDALPKKHAYWYQQKSGQAPVLVIYDDSKRPSGIPERFSGSSSGTMATLSISGAQVEDEAAYYCYSSDTSANYWVFGGGTKLTVL
The molecule B2 returned a Kd in assay [2] of 109 nM.

B3: RUPA-50 (hIgG1) (antibody, V domains shown)
VH: QVHLVESGGGVVQPGRSLRLSCAASGFTFRSYGMHWVRRVPGKGLEWVATISYDETFKDYPDSVKGRFTISRDNSKNTLFLQMNSLRPADTAVYYCAKDRAHSMHYFEYWGRGTLVTVSS
VL: SYELTQPPSVSVSPGQTARLTCSGDALPKKFAYWYQLKSGQAPVLVIYEDSKRPSGIPERFSGSSSGTTATLTISGAQVEDEADYYCYSRDGSGDQKNIFGGGTKLTVL
In the case of B3, in assay [1], the other was above 80 % TRA.

B4: RUPA-54 (hIgG1) (antibody, V domains shown)
VH: QVQLVESGGGVVQPGRSLRLSCTASGFTFRSYGIHWVRQAPGKGLQWVAFISYDGRNKYYADSVKGRFTISRDNSKNTLYLQMSGLRADDTAVYYCAKDSDNDCTATSCYTVSWGQGTLVTVSS
VL: SYELTQPPSVSVSPGQTARITCSGDALPKKYAYWYQQKSGQAPVLVIYEDKKRPSGIPERFSGSSSGTMATLTISGAQVEDEADYYCYSTDSRTDHGGIFGGGTKLTVL
Turning to B4, in assay [1], the other is above 80 % TRA.

B5: RUPA-100 (hIgG1) (antibody, V domains shown)
VH: QVQLVESGGGVVQPGRSLRLSCAASGFSFSHYGMHWVRQAPGKGLEWVAVISYDGNYKYYGDSVKGRFTISRDNFKNTLYLQMNSLRPEDTAVYYCAKGKAHSCVSTSCYTDFWGQGTLVTVPS
VL: SYELTQPPSVSVSPGQTARITCSGDALPKKYAYWYQQKSGQAPVLVIYEDSKRPSGIPERFSGSSSGTMATLTISGAQVEDEGDYYCYSTDSSYNHRGVFGGGTKLTVL
B5 registered an other in assay [1] above 80 % TRA.

B6: RUPA-44 (Fab) (Fab, V domains shown)
VH: QLQLQESGPGLVKPSETLSLTCTVSGGSISRSPYYWGWIRQPPGKGLEWFGSIYNNGSTYYNPPLKSRLTISVDTSKNQFSLKLSSVTAADTAVYYCARHGGSTGMKVVVIAPPDYWGQGTLVTVSS
VL: DIQMTQSPATLSASVGDRVTITCRASQSISSWLAWYQQKPGEAPKLLIYKASSLQSGVPSRFSGSGSGTKFSLTISSLQPDDFATFYCQQYHSYPYTFGQGTKLEIK
Consider B6, for which the Kd in assay [3], in assay [2], in assay [4] and in assay [5] was below 20 nM each time.

B7: RUPA-117 (Fab) (Fab, V domains shown)
VH: QLQLQESGPGLVKPSETLSLTCTVSGGSISRSPYYWGWIRQPPGKGLEWFGSVYNNGSTYYNPSLKSRVTISVDTSKNQFSLKLSSVTAADTALYYCARHGGSTGMKVVVIAPPDYWGQGTLVTVSS
VL: DIQMTQSPATLSASVGDRVTITCRASQSISIWLAWYQQKPGEAPKLLIYKASSLQSGVPSRFSGSASGTKFSLTISSLQPDDFATFYCQQYHSYPYTFGQGTKLEIK
As for B7, the Kd in assay [3], in assay [2], in assay [4] and in assay [5] was below 20 nM in each case.

B8: RUPA-160 (hIgG1) (antibody, V domains shown)
VH: QVQLVQSGAEVKKPGASVKASCKASGYTFDNFDIIWARQATGQGLEWMGWMNPNTGKKGYAQNLKDRVTMTRDSSISTAYLELSSLRSEDTAVYYCVRAVGSYYGSGGWFDPWGQGTLVTVSS
VL: QSVLTQPPSASGTPGQRVTIACSGSSSNIGGNNVKWYQQLPGTAPKLVIYNNDERPPGVPDRVSGSKSGTSASLAISGVQSEDEADYYCATWDDSMKREVFGGGTKLTVL
Molecule B8 showed an other in assay [1] of 80 % TRA.

B9: RUPA-47 (Fab) (Fab, V domains shown)
VH: QVQLVQSGAEVKKPGASVKLSCTASGYTFTNFGITWVRQAPGQGLEWMAWISVYSGDTDYAQRFQGRVTMTTDTSTRTAYMEMRSLSFDDTAVYYCVRGGRDSPILGGYWGQGTLVTVSS
VL: EIVLTQSPGTLSLSPGERVTLSCRASQSVRSMYLAWYQQKPGQAPRLLIHGASIRATGIPDRFSGSGSGTDFTLTISRLEREDFAVYYCHQYGSSPLTFGGGTKVESK
B9 registered an other in assay [6] of 100 % TRA.

These data come from PMC9942873.
